One data set deals with 293T cells. As to the kind of experiment: Cell viability of 293T cell lines treated with Inhibitor of Telomerase I (crystal violet). The data set is classed as cell-based, human. The settings on record: 24.2 vs pLNCX 293T cells, inhibitor 0-20 μM, 72 hours. On the procedure:
FIG. 6.—Cell viability and telomerase activity of the 293T cell lines: pLNCX and 24.2 treated with the Inhibitor of telomerase I. A) Cell viability. After seeding the 293T cells: pLNCX and 24.2 in 24-well plates, they were incubated with concentrations between 0-20 μM of the Inhibitor of Telomerase I. The cell viability was measured by means of the crystal violet technique after 72 hours of exposure to the drug. The data represent the mean of two experiments performed in quadruplicate. B) Telomerase activity at different doses of the Inhibitor of Telomerase I. Telomerase activity of the 293T cells: 24.2 and pLNCX in the presence of different concentrations of the inhibitor of telomerase I (5-7 μM) for 3 days. The cells were seeded in 60-mm plates and subsequently treated at the specified concentrations and times.
The effect of GSE 24.2 in response to the inhibitor of telomerase I was studied. To this end, a viability curve was performed wherein the pLNCX and 24.2 cell lines were treated with increasing concentrations of the inhibitor of telomerase I (0-20 μM) for 72 hours. […]
Growth curves. […] The number of cells was determined by estimating the absorbance at 595 nm. […]

In data set [1] the test system is hTERT. As to the kind of experiment: RT-PCR of hTERT in cells of patients with dyskeratosis congenita. The data set is classed as cell-based, human. The settings on record: RT-PCR 24 hours after transfection. The protocol:
(§1) FIG. 10.—Telomerase activity and expression levels of hTERT and hTR in the cells of patients with dyskeratosis congenita and in VA13 cells transiently transfected with the 24.2 plasmid or the pLNCX empty vector. A) Telomerase activity measured by means of the TRAP assay in the cells of patients with dyskeratosis congenita (DC-1, DC-2 and DC-3) and in the carrier parent (DC-C) following electroporation of 45 μg of the pLNCX empty plasmid (−) or the pLNCX 24.2 vector (+) by 15 million cells. B) RT-PCR of the RNA from cells of one of the patients with dyskeratosis congenita, DC3 transfected with the empty vector and DC3 transfected with the 24.2 plasmid, using oligos specific for hTERT and hTR. As a starting RNA control, oligos for the amplification of GAPDH were used. C) Telomerase activity in VA13 cells. The cells were transiently transfected with 16 μg of the control pLNCX empty vector, expressing DKC or the GSE 24.2 peptide per million cells. 24 hours later, the telomerase activity was analysed as described above, using dilutions of the protein extracts from each transfection. D) The expression levels of hTERT and hTR in VA13 cells transfected with 16 μg of the different construct per million cells. RNA levels were detected as described above. GAPDH was used as a control. […] After 24 h of transfection, the luciferase activity was analyzed as described above. […]

For data set [2], the system named is hTR. Nature of the data set: RT-PCR of hTR in cells of patients with dyskeratosis congenita. The data set is classed as cell-based, human. Particulars: RT-PCR 24 hours after transfection. The protocol:
as §1

Data set [3] concerns hTERT. Nature of the data set: RT-PCR of hTERT in VA13 cells. The data set is classed as cell-based. The settings on record: transient transfection. On the procedure:
as §1

Data set [4] concerns hTR. Nature of the data set: RT-PCR of hTR in VA13 cells. Particulars: transient transfection. The data set is classed as cell-based. On the procedure:
as §1

B1: GSE 24.2: 165-pb cDNA fragment (nucleotides 268 to 433) of human dyskerin, SEQ ID NO1, encoding peptide SEQ ID NO2, expressed from pLNCX plasmid (nucleic acid, listed as Homo sapiens)
DNA: GGTTTCATTAATCTTGACAAGCCCTCTAACCCCTCTTCCCATGAGGTGGTAGCCTGGATTCGACGGATACTTCGGGTGGAGAAGACAGGGCACAGTGGTACTCTGGATCCCAAGGTGACTGGTTGTTTAATCGTGTGCATAGAACGAGCCACTCGCTTGGTGAAG
modifications: expressed from pLNCX plasmid; CDS (1)..(165) Sequence GSE 24.2
With B1, the “cell viability in response to Inhibitor of Telomerase I” value in the data set with 293T cells is given as “more resistant to the inhibitor of telomerase I”; in the data set with 293T cells (listed as 24.2), “increases viability”. In addition, the “hTERT expression levels in dyskeratosis congenita cells” value in the data set with hTERT [1] was “an increase in the expression levels was observed”. Further, the “hTR expression levels in dyskeratosis congenita cells” value with hTR [2] is “an increase in the expression levels was observed”. For the same molecule, the “expression of hTERT RNA in VA13 cells” value with hTERT [3] was “capable of recovering”. Also, the “expression of hTR RNA in VA13 cells” value with hTR [4] is recorded as “capable of recovering”.

The values are drawn from patent publication US9587002B2, “Sequence of nucleotides and peptides GSE 24.2 of dyskerin, which can induce telomerase activity, method for obtaining same, therapeutic compositions and applications thereof” (CONSEJO SUPERIOR DE INVESTIGACIONES CIENTIFICAS, priority 2005, dated 2017).
